Measurements published in publication PMC6053526, “Arabidopsis WRKY50 and TGA Transcription Factors Synergistically Activate Expression of PR1” (Frontiers in Plant Science, 2018).

Target: AtWRKY50 full length fused to a half of yellow fluorescent protein (BiFC) (Arabidopsis, UniProt Q8VWQ5 1-173)
Experiment: cell-based or functional assay

Chain of AtWRKY50 full length fused to a half of yellow fluorescent protein (BiFC) (Q8VWQ5 whole entry, the tested form may be a part): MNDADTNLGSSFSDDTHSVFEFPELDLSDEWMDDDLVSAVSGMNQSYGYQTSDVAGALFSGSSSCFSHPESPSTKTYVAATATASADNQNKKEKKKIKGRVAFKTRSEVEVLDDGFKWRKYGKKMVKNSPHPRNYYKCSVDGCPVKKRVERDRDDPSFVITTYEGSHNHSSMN

Binder	PR1::GUS reporter expression in Arabidopsis protoplasts co-transfected with 35S::AtWRKY50 and 35S::TGA5 (AtWRKY50 alone approximately 7-fold, TGA alone 2-fold)	PR1::GUS reporter expression in Arabidopsis protoplasts co-transfected with 35S::AtWRKY50 and 35S::TGA2 (AtWRKY50 alone approximately 7-fold, TGA alone 2-fold)
TGA5 full length fused to a half of yellow fluorescent protein (BiFC) (natural protein, Arabidopsis, UniProt Q39163 1-330, looked up) MGDTSPRTSVSTDGDTDHNNLMFDEGHLGIGASDSSDRSKSKMDQKTLRRLAQNREAARKSRLRKKAYVQQLENSRLKLTQLEQELQRARQQGVFISSSGDQAHSTAGDGAMAFDVEYRRWQEDKNRQMKELSSAIDSHATDSELRIIVDGVIAHYEELYRIKGNAAKSDVFHLLSGMWKTPAERCFLWLGGFRSSELLKLIASQLEPLTEQQSLDINNLQQSSQQAEDALSQGMDNLQQSLADTLSSGTLGSSSSGNVASYMGQMAMAMGKLGTLEGFIRQADNLRLQTYQQMVRLLTTRQSARALLAVHNYTLRLRALSSLWLARPRE	≤ 14 fold	
TGA2 full length fused to a half of yellow fluorescent protein (BiFC) (natural protein, Arabidopsis, UniProt P43273 1-330, looked up) MADTSPRTDVSTDDDTDHPDLGSEGALVNTAASDSSDRSKGKMDQKTLRRLAQNREAARKSRLRKKAYVQQLENSRLKLTQLEQELQRARQQGVFISGTGDQAHSTGGNGALAFDAEHSRWLEEKNKQMNELRSALNAHAGDSELRIIVDGVMAHYEELFRIKSNAAKNDVFHLLSGMWKTPAERCFLWLGGFRSSELLKLLANQLEPMTERQLMGINNLQQTSQQAEDALSQGMESLQQSLADTLSSGTLGSSSSGNVASYMGQMAMAMGKLGTLEGFIRQADNLRLQTLQQMIRVLTTRQSARALLAIHDYFSRLRALSSLWLARPRE		≤ 14 fold
